These results are taken from patent publication US20160331662A1, “Compositions that Inhibit and Prevent the Formation of Dental Caries and Methods of Using the Same” (priority 2014, published 2016).

No end group written: not given here. FAM = fluorescein amidite

Assay [1] has as its target A3VP1^SspB (S. gordonii DL1 SspB, residues 386-805) (Streptococcus gordonii DL1) (UniProt P16952).
For assay [2], the target named is C123^SspB (S. gordonii DL1 SspB, residues 913-1406) (Streptococcus gordonii DL1) (UniProt P16952).
In assay [3] the target is T1, A3VP1^AgI/II (Streptococcus mutans UA159), P23504.
T1 chain: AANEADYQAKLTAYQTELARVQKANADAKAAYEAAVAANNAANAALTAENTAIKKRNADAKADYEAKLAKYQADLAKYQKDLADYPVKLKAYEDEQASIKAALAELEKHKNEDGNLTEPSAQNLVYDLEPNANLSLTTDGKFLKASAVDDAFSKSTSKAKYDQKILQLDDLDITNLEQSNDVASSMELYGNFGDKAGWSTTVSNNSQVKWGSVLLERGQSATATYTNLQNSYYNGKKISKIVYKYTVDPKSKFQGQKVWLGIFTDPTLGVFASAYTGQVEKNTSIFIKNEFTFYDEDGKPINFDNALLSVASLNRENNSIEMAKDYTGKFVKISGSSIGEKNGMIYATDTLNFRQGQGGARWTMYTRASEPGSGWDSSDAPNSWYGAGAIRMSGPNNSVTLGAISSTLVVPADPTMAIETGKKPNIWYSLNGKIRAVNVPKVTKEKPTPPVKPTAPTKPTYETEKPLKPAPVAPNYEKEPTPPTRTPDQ

In assay [4] the target is T2, C123^AgI/II (Streptococcus mutans UA159), P23504.
T2 chain: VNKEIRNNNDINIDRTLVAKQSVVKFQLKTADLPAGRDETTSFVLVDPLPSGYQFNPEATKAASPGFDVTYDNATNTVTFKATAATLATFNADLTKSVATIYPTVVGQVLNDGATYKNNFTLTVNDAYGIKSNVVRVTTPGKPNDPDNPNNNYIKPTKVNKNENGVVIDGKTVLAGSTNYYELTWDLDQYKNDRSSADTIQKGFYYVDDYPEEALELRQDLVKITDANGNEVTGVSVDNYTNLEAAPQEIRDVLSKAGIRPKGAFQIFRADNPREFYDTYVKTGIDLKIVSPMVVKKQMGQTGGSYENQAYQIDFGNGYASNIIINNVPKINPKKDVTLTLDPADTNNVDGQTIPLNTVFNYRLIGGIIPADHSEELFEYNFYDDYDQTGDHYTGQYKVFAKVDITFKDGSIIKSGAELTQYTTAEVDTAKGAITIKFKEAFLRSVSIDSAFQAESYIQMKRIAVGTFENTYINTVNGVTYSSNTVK

The target of assay [5] is T3, FL^AgI/II (S. mutans UA159 Antigen I/II, full length recombinant construct) (Streptococcus mutans UA159), P23504.
T3 chain: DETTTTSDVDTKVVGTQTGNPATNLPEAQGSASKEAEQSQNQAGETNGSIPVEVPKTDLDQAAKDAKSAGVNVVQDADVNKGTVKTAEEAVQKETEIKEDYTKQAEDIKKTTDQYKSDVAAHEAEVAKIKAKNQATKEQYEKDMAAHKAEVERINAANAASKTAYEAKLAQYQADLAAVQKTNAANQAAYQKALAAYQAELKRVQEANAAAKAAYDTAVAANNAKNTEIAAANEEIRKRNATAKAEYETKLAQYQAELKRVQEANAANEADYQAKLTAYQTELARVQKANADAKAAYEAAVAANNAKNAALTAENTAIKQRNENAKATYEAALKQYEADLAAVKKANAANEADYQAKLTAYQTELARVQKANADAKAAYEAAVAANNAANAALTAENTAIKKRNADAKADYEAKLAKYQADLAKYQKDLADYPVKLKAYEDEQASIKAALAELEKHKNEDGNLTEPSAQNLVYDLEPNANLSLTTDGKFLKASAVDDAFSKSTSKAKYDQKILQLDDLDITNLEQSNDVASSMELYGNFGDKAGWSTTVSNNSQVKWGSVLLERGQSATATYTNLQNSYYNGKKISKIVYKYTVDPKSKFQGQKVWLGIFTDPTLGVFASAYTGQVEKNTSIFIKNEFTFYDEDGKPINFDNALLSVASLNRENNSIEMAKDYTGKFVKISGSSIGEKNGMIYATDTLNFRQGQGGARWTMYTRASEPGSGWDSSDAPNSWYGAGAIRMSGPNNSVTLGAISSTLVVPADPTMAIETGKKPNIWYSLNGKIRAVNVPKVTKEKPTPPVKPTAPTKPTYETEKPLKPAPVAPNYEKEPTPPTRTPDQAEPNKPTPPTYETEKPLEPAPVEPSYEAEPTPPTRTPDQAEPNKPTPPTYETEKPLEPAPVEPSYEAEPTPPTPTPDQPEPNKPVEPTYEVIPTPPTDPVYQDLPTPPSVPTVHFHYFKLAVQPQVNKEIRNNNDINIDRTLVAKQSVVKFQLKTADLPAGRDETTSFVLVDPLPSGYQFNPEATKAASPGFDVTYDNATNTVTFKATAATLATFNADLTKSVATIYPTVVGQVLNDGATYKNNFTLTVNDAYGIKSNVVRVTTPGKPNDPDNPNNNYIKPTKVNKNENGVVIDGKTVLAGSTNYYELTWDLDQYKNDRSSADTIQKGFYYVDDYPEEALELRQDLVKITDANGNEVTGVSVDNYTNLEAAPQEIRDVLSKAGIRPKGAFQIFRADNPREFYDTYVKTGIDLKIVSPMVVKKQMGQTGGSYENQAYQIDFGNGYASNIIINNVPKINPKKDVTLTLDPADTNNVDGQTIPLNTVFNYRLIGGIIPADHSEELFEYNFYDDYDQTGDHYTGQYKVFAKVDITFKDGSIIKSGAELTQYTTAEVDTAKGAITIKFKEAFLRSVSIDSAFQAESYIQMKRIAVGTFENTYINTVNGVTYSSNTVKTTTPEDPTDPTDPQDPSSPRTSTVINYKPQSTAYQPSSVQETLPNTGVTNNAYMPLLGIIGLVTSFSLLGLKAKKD

For assay [6], the target named is T4, FL^SspB (S. gordonii DL1 SspB, residues 39-1433) (Streptococcus gordonii DL1), P16952.
T4 chain: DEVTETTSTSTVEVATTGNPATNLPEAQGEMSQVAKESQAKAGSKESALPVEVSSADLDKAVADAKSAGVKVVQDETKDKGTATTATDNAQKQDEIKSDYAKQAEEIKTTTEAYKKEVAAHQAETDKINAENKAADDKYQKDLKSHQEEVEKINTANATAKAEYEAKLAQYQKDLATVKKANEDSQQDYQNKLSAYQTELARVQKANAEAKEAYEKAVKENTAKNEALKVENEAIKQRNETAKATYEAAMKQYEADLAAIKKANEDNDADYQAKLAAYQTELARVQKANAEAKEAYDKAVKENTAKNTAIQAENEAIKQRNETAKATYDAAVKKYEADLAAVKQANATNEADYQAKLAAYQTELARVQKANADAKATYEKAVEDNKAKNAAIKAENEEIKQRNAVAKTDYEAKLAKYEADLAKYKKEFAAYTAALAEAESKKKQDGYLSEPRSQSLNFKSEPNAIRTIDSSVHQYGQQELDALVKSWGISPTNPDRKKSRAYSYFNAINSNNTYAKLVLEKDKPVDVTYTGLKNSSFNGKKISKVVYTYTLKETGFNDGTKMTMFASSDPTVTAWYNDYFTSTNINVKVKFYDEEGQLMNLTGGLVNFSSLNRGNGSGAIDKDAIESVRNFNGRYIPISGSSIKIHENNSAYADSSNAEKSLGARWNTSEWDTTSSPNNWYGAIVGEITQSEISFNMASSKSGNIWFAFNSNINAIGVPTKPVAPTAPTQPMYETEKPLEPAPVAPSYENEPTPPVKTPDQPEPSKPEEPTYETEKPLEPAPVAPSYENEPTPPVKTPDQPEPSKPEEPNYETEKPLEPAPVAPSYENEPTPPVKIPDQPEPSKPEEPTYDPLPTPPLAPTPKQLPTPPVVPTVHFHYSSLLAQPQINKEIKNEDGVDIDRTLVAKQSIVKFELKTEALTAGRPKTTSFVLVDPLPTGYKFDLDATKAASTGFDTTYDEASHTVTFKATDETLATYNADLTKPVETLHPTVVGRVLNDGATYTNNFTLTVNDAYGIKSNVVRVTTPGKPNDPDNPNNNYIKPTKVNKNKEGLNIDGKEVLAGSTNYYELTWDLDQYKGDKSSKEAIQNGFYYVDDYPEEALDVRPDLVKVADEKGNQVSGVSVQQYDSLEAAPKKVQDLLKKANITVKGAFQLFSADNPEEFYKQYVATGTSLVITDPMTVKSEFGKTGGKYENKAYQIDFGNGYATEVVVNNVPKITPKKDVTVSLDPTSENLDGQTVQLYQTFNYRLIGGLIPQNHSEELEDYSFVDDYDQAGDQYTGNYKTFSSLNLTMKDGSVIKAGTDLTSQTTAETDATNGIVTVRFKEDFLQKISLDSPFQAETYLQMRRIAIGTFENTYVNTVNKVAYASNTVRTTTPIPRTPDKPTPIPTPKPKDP

For assay [7], the target named is A3VP1^SspB (S. gordonii DL1 SspB, residues 386-805) (Streptococcus gordonii DL1) (UniProt P16952). Nature of the assay: SPR; 2 µM A3VP1^SspB incubated with 0.005 mM peptide, over immobilized iSRCR1. A general note: SPR reads the build-up and loss of mass on a sensor chip optically.
Assay [8] has as its target T4, FL^SspB (S. gordonii DL1 SspB, residues …). Briefly: SPR; 2 µM FL^SspB incubated with 0.005 mM peptide, over immobilized iSRCR1.
Assay [9] concerns the target T3, FL^AgI/II (S. mutans UA159 Antigen …). Nature of the assay: SPR; 2 µM FL^AgI/II incubated with 0.005 mM peptide, over immobilized iSRCR1.
Assay [10] deals with T1, A3VP1^AgI/II (Streptococcus mutans …). Briefly: SPR; 2 µM A3VP1^AgI/II incubated with 0.005 mM peptide, over immobilized iSRCR1.
In assay [11] the target is GbpC (S. mutans), glucan binding protein C (Streptococcus mutans). Nature of the assay: SPR, peptide over immobilized GbpC.

Consider QGRVEVLYRGSWGTVCK-{FAM} [SRCRP2 peptide with fluorescein amidite (FAM) at the carboxyl end (…-[FAM])], for which the figures for the % change of adherence to iSRCR123 in assay [1], in assay [2] and in [4] were 3%, 5% and 7%, respectively. Moreover, the % change of adherence to iSRCR1 in [2] was found to be 4%; in assay [4], 2.3%; in assay [7], 3%. For the same molecule, the % improvement of adherence to iSRCR123 in assay [3] stood at 16%; in assay [5], 8%; in assay [6], 91%. Moreover, the values for the % improvement of adherence to iSRCR1 in assay [8], in assay [9] and in [10] were 97%, 8% and 13%, respectively.

As usually defined, the Kd is a measure of binding affinity in units of concentration. A low value points to tighter binding. By koff is commonly meant the first-order rate constant of dissociation. What is called kon is the second-order rate constant of association. Low values mean slower complex formation, high ones faster complex formation. In the case of ETNDANVVARQL (modifications not checked) [SRCR peptide …], in [11], the Ka was determined as 2.57e+08 M⁻¹, the Kd turned out to be 3.89 nM, the koff turned out to be 0.0573 s⁻¹ and the kon was found to be 1.47e+07 M⁻¹ s⁻¹.
